Earlier results as cited in article PMC10130511.
Like-named read-outs stand apart in the source and are kept apart here. Each block holds one substance with its values, some of them ahead of it.

Columns and labels:
IP3R [1] = target: IP3R (UniProt P29994)
IP3R [2] = target: IP3R (UniProt P29994); remark: listed apart in the source
IP3R [3] = target: IP3R (UniProt P29994); remark: listed apart in the source

Sequence of UniProt P29994 (P29994 whole entry): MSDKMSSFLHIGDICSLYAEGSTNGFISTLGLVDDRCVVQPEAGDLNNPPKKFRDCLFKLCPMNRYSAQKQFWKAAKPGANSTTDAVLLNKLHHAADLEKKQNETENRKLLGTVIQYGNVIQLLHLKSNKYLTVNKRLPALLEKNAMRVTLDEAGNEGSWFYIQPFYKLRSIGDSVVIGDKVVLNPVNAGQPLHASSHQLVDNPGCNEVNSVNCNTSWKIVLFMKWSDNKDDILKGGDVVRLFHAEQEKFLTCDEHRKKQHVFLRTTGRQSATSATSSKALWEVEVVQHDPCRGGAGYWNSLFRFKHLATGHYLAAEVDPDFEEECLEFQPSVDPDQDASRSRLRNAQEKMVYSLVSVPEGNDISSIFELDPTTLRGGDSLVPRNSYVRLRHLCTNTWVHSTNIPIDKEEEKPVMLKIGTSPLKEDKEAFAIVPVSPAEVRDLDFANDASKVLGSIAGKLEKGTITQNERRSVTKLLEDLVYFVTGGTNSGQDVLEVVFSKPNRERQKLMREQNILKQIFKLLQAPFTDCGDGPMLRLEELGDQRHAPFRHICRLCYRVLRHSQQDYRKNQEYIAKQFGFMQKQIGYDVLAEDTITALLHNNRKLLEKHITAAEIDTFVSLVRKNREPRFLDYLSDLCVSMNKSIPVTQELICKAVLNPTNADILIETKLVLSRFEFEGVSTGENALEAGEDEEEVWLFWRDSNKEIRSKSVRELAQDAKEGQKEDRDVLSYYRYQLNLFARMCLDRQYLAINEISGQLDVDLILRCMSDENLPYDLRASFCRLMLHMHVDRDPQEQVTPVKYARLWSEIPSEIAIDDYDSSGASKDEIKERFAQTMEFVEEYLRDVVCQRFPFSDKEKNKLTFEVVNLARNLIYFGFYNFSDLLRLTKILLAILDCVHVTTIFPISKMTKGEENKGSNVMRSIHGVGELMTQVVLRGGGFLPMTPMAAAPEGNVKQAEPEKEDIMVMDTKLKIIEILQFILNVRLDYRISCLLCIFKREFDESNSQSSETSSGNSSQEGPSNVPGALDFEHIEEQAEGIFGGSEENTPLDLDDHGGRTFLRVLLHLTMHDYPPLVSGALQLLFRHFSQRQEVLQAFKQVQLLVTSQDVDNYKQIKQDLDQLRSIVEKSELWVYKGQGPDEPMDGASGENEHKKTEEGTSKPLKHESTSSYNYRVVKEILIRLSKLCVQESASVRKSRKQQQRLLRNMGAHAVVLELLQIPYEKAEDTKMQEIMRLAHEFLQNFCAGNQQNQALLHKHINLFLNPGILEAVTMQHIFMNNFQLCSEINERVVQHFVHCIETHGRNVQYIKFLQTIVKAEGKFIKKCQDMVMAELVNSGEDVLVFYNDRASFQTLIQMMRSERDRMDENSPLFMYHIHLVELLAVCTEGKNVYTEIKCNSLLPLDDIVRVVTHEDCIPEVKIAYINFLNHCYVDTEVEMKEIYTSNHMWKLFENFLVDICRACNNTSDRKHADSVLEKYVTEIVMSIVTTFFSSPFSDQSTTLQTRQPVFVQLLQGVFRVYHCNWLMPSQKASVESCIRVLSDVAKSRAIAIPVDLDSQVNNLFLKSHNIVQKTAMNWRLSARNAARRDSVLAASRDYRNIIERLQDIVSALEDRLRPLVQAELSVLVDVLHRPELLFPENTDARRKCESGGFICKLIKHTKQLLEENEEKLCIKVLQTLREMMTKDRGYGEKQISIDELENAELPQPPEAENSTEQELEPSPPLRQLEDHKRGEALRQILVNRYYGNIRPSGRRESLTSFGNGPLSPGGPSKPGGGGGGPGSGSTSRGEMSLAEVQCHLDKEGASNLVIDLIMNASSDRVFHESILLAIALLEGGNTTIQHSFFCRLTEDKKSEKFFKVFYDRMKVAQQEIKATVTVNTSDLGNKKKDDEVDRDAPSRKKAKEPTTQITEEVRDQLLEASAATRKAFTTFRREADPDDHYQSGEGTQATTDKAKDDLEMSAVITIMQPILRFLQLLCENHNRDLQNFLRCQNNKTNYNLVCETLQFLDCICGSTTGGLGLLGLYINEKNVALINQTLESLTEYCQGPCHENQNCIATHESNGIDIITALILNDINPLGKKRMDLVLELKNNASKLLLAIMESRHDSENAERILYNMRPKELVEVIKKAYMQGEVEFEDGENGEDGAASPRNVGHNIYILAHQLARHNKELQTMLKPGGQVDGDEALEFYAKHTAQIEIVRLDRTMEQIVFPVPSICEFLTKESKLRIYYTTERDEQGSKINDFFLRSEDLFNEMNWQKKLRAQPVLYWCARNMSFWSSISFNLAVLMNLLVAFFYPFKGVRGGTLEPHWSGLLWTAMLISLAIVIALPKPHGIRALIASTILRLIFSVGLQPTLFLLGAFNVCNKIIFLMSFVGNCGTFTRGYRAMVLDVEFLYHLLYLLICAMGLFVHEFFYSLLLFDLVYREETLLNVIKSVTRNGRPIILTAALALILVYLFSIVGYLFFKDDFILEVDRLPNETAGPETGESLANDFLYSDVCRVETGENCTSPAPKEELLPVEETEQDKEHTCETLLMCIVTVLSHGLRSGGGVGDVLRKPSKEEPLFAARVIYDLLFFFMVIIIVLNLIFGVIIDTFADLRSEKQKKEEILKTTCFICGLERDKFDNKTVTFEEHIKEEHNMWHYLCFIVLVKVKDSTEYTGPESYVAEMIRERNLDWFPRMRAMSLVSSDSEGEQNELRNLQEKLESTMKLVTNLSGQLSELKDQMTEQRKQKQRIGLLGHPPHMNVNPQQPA

Kd (IP3R [1]): 1000 nM
Substance: Bcl-2 (from UniProt P10415)

Kd (IP3R [2]): 65 nM
Substance: Bok (from UniProt Q9UMX3)

Kd (IP3R [3]): 700 nM
Substance: Bcl-xL (from UniProt Q07817)
